Experimental data reported in article PMC5588548, “Suramin Inhibits Osteoarthritic Cartilage Degradation by Increasing Extracellular Levels of Chondroprotective Tissue Inhibitor of Metalloproteinases 3” (Molecular Pharmacology, 2017).

Test system: HTB94 chondrosarcoma cells
Assay type: cell-based
Method: Cells (HTB94 chondrosarcoma cells, primary porcine chondrocytes, or human osteoarthritic chondrocytes) were plated overnight (6 × 10^5 cells per well of a 12-well plate) in DMEM containing 10% FCS and washed three times in serum-free DMEM.
To evaluate endocytosis of exogenously added TIMP-3, cells were incubated with recombinant TIMP-3 (1 nM in 1.5 ml DMEM with 0.1% FCS) for 0–24 hours. Conditioned media were concentrated by precipitation with trichloroacetic acid [5% (v/v), 4°C, 18 hours]. After centrifugation (13,000 rpm, 4°C, 10 minutes), protein-containing pellets were resuspended in SDS sample buffer (30 µl), electrophoresed (7 µl) on a 10% polyacrylamide gel, and immunoblotted onto polyvinylidene fluoride. After blocking in 5% (m/v) BSA in Tris-buffered saline, TIMP-3 levels were analyzed using an M2 anti-FLAG antibody (Sigma-Aldrich), an alkaline phosphatase–conjugated anti-mouse secondary antibody (Promega, Southampton, UK), and a Western Blue stabilized substrate for alkaline phosphatase (Promega). Immunoblots were analyzed by densitometry using Phoretix 1D densitometry software (TotalLab, Newcastle-upon-Tyne, UK), and TIMP-3 remaining in the medium (mean ± S.D., n = 3) was calculated relative to pixel volume at a t of 0 hours (defined as 100%).

B1: TIMP-3: C-terminally FLAG-tagged human TIMP-3 expressed in human embryonic kidney 293 cells; endogenous metalloproteinase inhibitor (protein, UniProt P35625 24-211, looked up)
Metalloproteinase inhibitor 3: CTCSPSHPQDAFCNSDIVIRAKVVGKKLVKEGPFGTLVYTIKQMKMYRGFTKMPHVQYIHTEASESLCGLKLEVNKYQYLLTGRVYDGKMYTGLCNFVERWDQLTLSQRKGLNYRYHLGCNCKIKSCYYLPCFVTSKNECLWTDMLSNFGYPGYQSKHYACIRQKGGYCSWYRGWAPPDKSIINATDP
modifications: C-terminal FLAG tag
For B1, the “half-life of TIMP-3 uptake from the medium” value was 4.0 ± 1.3 h.
